According to article PMC12177922, “In Vivo Ribosome-Amplified MetaBOlism, RAMBO, Effect Observed by Real Time Pulse Chase, RTPC, NMR Spectroscopy” (Biochemistry, 2025):

Experiments:
[1] = biological target: Pyruvate kinase I from E. coli, PYK-F (E. coli) (UniProt P0AD61)
[2] = biological target: Pyruvate kinase I from E. coli, PYK-F (E. coli) (UniProt P0AD61); remark: listed apart in the source
[3] = biological target: Pyruvate kinase I from E. coli, PYK-F (E. coli) (UniProt P0AD61); assay: ribosome titration of enzyme activity (direct 1H NMR kinetic assay); 120 nM PYK-F, ribosomes titrated up to 8 uM; change of initial velocity (pyruvate methyl peak) at 2 mM PEP and 4 mM ADP; 10 mM sodium phosphate pH 7.5, 50 mM KCl, 10 mM MgCl2, 10 °C; one site-specific binding model …; saturation not reached
[4] = biological target: Pyruvate kinase I from E. coli, PYK-F (E. coli) (UniProt P0AD61); remark: listed apart in the source

Substance: Intact 70S ribosomes from E. coli strain MRE600 (from UniProt P60723 1-201; P0AG55 1-177; P0A7R1 1-149; P0AA10 1-142; P0AG44 1-127; P0AG48 1-103; P61175 1-110; P68919 1-94; P0A7L8 1-85; P0A7M9 1-70; P0AG67 1-557; P0A7V3 1-233; P0A7X3 1-130; P0A7S3 1-124; P0A7U7 1-87) (complex)
- decrease in sum of the influx rates of lactate, ethanol and acetate in living E. coli BL21(DE3) (RTPC-NMR), 2x chloramphenicol against none [1]: 32%
- kcat of PYK-F (ADP saturation curve) with 2 μM ribosomes against none [2]: 10%
- Kd [3]: 10 µM
- PYK-F activity (initial velocity, NMR kinetic assay) with 3 μM ribosomes against none [4]: 35%
